Test results published in patent publication US20160108115.

What was measured:
Experiment in all cases: SPR, pH 7.4
Settings in all cases: remark: other sources report otherwise
[1] = biological target: FcγRI (human) (UniProt P12314)
[2] = biological target: FcγRIIIb (human) (UniProt O75015)
[3] = biological target: FcγRIIIa (human) (UniProt P08637)
Chain of FcγRIIIa (human) (P08637 17-208): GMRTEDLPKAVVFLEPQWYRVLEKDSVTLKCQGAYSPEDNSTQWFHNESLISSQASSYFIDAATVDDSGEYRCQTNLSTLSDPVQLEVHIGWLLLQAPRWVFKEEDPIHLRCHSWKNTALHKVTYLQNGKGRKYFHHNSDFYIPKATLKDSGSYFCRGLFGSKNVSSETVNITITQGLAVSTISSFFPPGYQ

Chain of FcγRI (human) (P12314 16-288): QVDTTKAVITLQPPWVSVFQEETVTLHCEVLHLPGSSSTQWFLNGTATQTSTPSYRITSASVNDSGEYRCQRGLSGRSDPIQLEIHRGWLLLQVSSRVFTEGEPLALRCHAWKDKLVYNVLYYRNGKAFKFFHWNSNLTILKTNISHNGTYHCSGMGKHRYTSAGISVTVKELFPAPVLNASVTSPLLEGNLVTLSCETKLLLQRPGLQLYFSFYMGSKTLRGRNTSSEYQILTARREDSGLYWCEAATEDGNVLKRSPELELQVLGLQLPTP
Chain of FcγRIIIb (human) (O75015 17-200): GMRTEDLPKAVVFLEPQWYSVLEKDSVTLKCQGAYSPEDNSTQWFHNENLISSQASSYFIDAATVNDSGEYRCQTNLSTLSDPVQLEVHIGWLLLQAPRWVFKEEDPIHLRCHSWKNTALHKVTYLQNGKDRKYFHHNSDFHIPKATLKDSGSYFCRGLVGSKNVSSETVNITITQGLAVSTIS

**Q.** What does the source list for eculizumab (full length)?
**A.** Kd [1]: 3.78 µM; Kd [2]: 3.49 µM; Kd [3]: 6.78 µM
